Experimental data as given in US12099068B2, “Biomarkers for graft-versus-host disease” (Incyte Corporation, priority 2018, dated 2024).

Each molecule was assayed on plasma proteins (assay: Plasma proteins modulated between baseline and day 28 in responders (CR, VGPR, PR; n = 19), Example 6 (Table 13)). Conditions: plasma protein (OLINK NPX); responders (CR, VGPR, PR; n = 19); itacitinib 200 mg or 300 mg QD with corticosteroids; day 28 vs baseline.
Type: in vivo, human
Method in brief: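 Longitudinal comparison, day 28 versus baseline, with steroid-naive (N=10) and steroid-refractory (N=18) patients combined. Proteins measured by OLINK proximity extension, log2 normalized protein expression. Differences tested by t tests, ANOVA, Pearson correlation, P<0.05 significant.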

Molecule	Fold Change, Increased Expression from Baseline to Day 28	Fold Change, Decreased Expression from Baseline to Day 28
DNER (protein, UniProt Q8NFT8 35-737, looked up) Delta and Notch-like …: NPVPAAPLSAPGPCAAQPCRNGGVCTSRPEPDPQHPAPAGEPGYSCTCPAGISGANCQLVADPCASNPCHHGNCSSSSSSSSDGYLCICNEGYEGPNCEQALPSLPATGWTESMAPRQLQPVPATQEPDKILPRSQATVTLPTWQPKTGQKVVEMKWDQVEVIPDIACGNASSNSSAGGRLVSFEVPQNTSVKIRQDATASLILLWKVTATGFQQCSLIDGRSVTPLQASGGLVLLEEMLALGNNHFIGFVNDSVTKSIVALRLTLVVKVSTCVPGESHANDLECSGKGKCTTKPSEATFSCTCEEQYVGTFCEEYDACQRKPCQNNASCIDANEKQDGSNFTCVCLPGYTGELCQSKIDYCILDPCRNGATCISSLSGFTCQCPEGYFGSACEEKVDPCASSPCQNNGTCYVDGVHFTCNCSPGFTGPTCAQLIDFCALSPCAHGTCRSVGTSYKCLCDPGYHGLYCEEEYNECLSAPCLNAATCRDLVNGYECVCLAEYKGTHCELYKDPCANVSCLNGATCDSDGLNGTCICAPGFTGEECDIDINECDSNPCHHGGSCLDQPNGYNCHCPHGWVGANCEIHLQWKSGHMAESLTNMPRHSLYIIIGALCVAFILMLIILIVGICRISRIEYQGSSRPAYEEFYNCRSIDSEFSNAIASIRHARFGKKSRPAMYDVSPIAYEDYSPDDKPLVTLIKTKDL	1.2957	–
FASLG (protein, UniProt P48023 130-281, looked up) Tumor necrosis factor ligand …: QIGHPSPPPEKKELRKVAHLTGKSNSRSMPLEWEDTYGIVLLSGVKYKKGGLVINETGLYFVYSKVYFRGQSCNNLPLSHKVYMRNSKYPQDLVMMEGKMMSYCTTGQMWARSSYLGAVFNLTSADHLYVNVSELSLVNFEESQTFFGLYKL	–	−1.3614
MATN3 (protein, UniProt O15232 29-486, looked up) Matrilin-3: DPVARPGFRRLETRGPGGSPGRRPSPAAPDGAPASGTSEPGRARGAGVCKSRPLDLVFIIDSSRSVRPLEFTKVKTFVSRIIDTLDIGPADTRVAVVNYASTVKIEFQLQAYTDKQSLKQAVGRITPLSTGTMSGLAIQTAMDEAFTVEAGAREPSSNIPKVAIIVTDGRPQDQVNEVAARAQASGIELYAVGVDRADMASLKMMASEPLEEHVFYVETYGVIEKLSSRFQETFCALDPCVLGTHQCQHVCISDGEGKHHCECSQGYTLNADKKTCSALDRCALNTHGCEHICVNDRSGSYHCECYEGYTLNEDRKTCSAQDKCALGTHGCQHICVNDRTGSHHCECYEGYTLNADKKTCSVRDKCALGSHGCQHICVSDGAASYHCDCYPGYTLNEDKKTCSATEEARRLVSTEDACGCEATLAFQDKVSSYLQRLNTKLDDILEKLKINEYGQIHR	–	−1.3384
CEACAM8 (protein, UniProt P31997 35-320, looked up) Cell adhesion molecule CEACAM8: QLTIEAVPSNAAEGKEVLLLVHNLPQDPRGYNWYKGETVDANRRIIGYVISNQQITPGPAYSNRETIYPNASLLMRNVTRNDTGSYTLQVIKLNLMSEEVTGQFSVHPETPKPSISSNNSNPVEDKDAVAFTCEPETQNTTYLWWVNGQSLPVSPRLQLSNGNRTLTLLSVTRNDVGPYECEIQNPASANFSDPVTLNVLYGPDAPTISPSDTYYHAGVNLNLSCHAASNPPSQYSWSVNGTFQQYTQKLFIPNITTKNSGSYACHTTNSATGRNRTTVRMITVSD	–	−1.6177
FCRL6 (protein, UniProt Q6DN72 20-434, looked up) Fc receptor-like protein 6: LYLQAWPNPVFEGDALTLRCQGWKNTPLSQVKFYRDGKFLHFSKENQTLSMGAATVQSRGQYSCSGQVMYIPQTFTQTSETAMVQVQELFPPPVLSAIPSPEPREGSLVTLRCQTKLHPLRSALRLLFSFHKDGHTLQDRGPHPELCIPGAKEGDSGLYWCEVAPEGGQVQKQSPQLEVRVQAPVSRPVLTLHHGPADPAVGDMVQLLCEAQRGSPPILYSFYLDEKIVGNHSAPCGGTTSLLFPVKSEQDAGNYSCEAENSVSRERSEPKKLSLKGSQVLFTPASNWLVPWLPASLLGLMVIAAALLVYVRSWRKAGPLPSQIPPTAPGGEQCPLYANVHHQKGKDEGVVYSVVHRTSKRSEARSAEFTVGRKDSSIICAEVRCLQPSEVSSTEVNMRSRTLQEPLSDCEEVLC	–	−1.3556
PRDX3 (protein, UniProt P30048 62-256, looked up) Thioredoxin-dependent …: APAVTQHAPYFKGTAVVNGEFKDLSLDDFKGKYLVLFFYPLDFTFVCPTEIVAFSDKANEFHDVNCEVVAVSVDSHFSHLAWINTPRKNGGLGHMNIALLSDLTKQISRDYGVLLEGSGLALRGLFIIDPNGVIKHLSVNDLPVGRSVEETLRLVKAFQYVETHGEVCPANWTPDSPTIKPSPAASKEYFQKVNQ	–	−1.199
CNTNAP2 (protein, UniProt Q9UHC6 28-1331, looked up) Contactin-associated …: APSTSQKCDEPLVSGLPHVAFSSSSSISGSYSPGYAKINKRGGAGGWSPSDSDHYQWLQVDFGNRKQISAIATQGRYSSSDWVTQYRMLYSDTGRNWKPYHQDGNIWAFPGNINSDGVVRHELQHPIIARYVRIVPLDWNGEGRIGLRIEVYGCSYWADVINFDGHVVLPYRFRNKKMKTLKDVIALNFKTSESEGVILHGEGQQGDYITLELKKAKLVLSLNLGSNQLGPIYGHTSVMTGSLLDDHHWHSVVIERQGRSINLTLDRSMQHFRTNGEFDYLDLDYEITFGGIPFSGKPSSSSRKNFKGCMESINYNGVNITDLARRKKLEPSNVGNLSFSCVEPYTVPVFFNATSYLEVPGRLNQDLFSVSFQFRTWNPNGLLVFSHFADNLGNVEIDLTESKVGVHINITQTKMSQIDISSGSGLNDGQWHEVRFLAKENFAILTIDGDEASAVRTNSPLQVKTGEKYFFGGFLNQMNNSSHSVLQPSFQGCMQLIQVDDQLVNLYEVAQRKPGSFANVSIDMCAIIDRCVPNHCEHGGKCSQTWDSFKCTCDETGYSGATCHNSIYEPSCEAYKHLGQTSNYYWIDPDGSGPLGPLKVYCNMTEDKVWTIVSHDLQMQTPVVGYNPEKYSVTQLVYSASMDQISAITDSAEYCEQYVSYFCKMSRLLNTPDGSPYTWWVGKANEKHYYWGGSGPGIQKCACGIERNCTDPKYYCNCDADYKQWRKDAGFLSYKDHLPVSQVVVGDTDRQGSEAKLSVGPLRCQGDRNYWNAASFPNPSSYLHFSTFQGETSADISFYFKTLTPWGVFLENMGKEDFIKLELKSATEVSFSFDVGNGPVEIVVRSPTPLNDDQWHRVTAERNVKQASLQVDRLPQQIRKAPTEGHTRLELYSQLFVGGAGGQQGFLGCIRSLRMNGVTLDLEERAKVTSGFISGCSGHCTSYGTNCENGGKCLERYHGYSCDCSNTAYDGTFCNKDVGAFFEEGMWLRYNFQAPATNARDSSSRVDNAPDQQNSHPDLAQEEIRFSFSTTKAPCILLYISSFTTDFLAVLVKPTGSLQIRYNLGGTREPYNIDVDHRNMANGQPHSVNITRHEKTIFLKLDHYPSVSYHLPSSSDTLFNSPKSLFLGKVIETGKIDQEIHKYNTPGFTGCLSRVQFNQIAPLKAALRQTNASAHVHIQGELVESNCGASPLTLSPMSSATDPWHLDHLDSASADFPYNPGQGQAIRNGVNRNSAIIGGVIAVVIFTILCTLVFLIRYMFRHKGTYHTNEAKGAESAESADAAIMNNDPNFTETIDESKKEWLI	–	−1.3091
SEMA7A (protein, UniProt O75326 45-648, looked up) Semaphorin-7A: QGHLRSGPRIFAVWKGHVGQDRVDFGQTEPHTVLFHEPGSSSVWVGGRGKVYLFDFPEGKNASVRTVNIGSTKGSCLDKRDCENYITLLERRSEGLLACGTNARHPSCWNLVNGTVVPLGEMRGYAPFSPDENSLVLFEGDEVYSTIRKQEYNGKIPRFRRIRGESELYTSDTVMQNPQFIKATIVHQDQAYDDKIYYFFREDNPDKNPEAPLNVSRVAQLCRGDQGGESSLSVSKWNTFLKAMLVCSDAATNKNFNRLQDVFLLPDPSGQWRDTRVYGVFSNPWNYSAVCVYSLGDIDKVFRTSSLKGYHSSLPNPRPGKCLPDQQPIPTETFQVADRHPEVAQRVEPMGPLKTPLFHSKYHYQKVAVHRMQASHGETFHVLYLTTDRGTIHKVVEPGEQEHSFAFNIMEIQPFRRAAAIQTMSLDAERRKLYVSSQWEVSQVPLDLCEVYGGGCHGCLMSRDPYCGWDQGRCISIYSSERSVLQSINPAEPHKECPNPKPDKAPLQKVSLAPNSRYYLSCPMESRHATYSWRHKENVEQSCEPGHQSPNCILFIENLTAQQYGHYFCEAQEGSYFREAQHWQLLPEDGIMAEHLLGHACALA	–	−1.1335
